In test [1] the test system is humanized Pear1 mice. The experiment in a line: Peritoneal adhesion model, BhatiaDS score. Format: in vivo. The arrangement: key to BhatiaDS score: grade 0: no adhesion; grade I: adhesive area of the area treated in the caecums of vermiform/total area of the treated area<50%, easy for blunt separation; grade II: above-mentioned area ratio≥50%, easy for blunt dissection; Grade III: Regardless of the size of the adhesive area, as long as the adhesion is difficult to separate, blunt separation can still be performed, but the intestinal wall is obviously damaged after separation; Grade IV: Regardless of the size of the adhesive area, as long as the adhesion is firm and can no longer be bluntly separated, required sharp separation. The text has this: The model was made in humanized mice within 3 cm from the caecums of vermiform in peritoneal cavity, following the methods in the literature (Zhiliang Zhang, et al., Characteristics of genesis and development of peritoneal adhesion by different causes: experiment with rats, Chinese Journal of Medicine, 2005). The mice were divided into 3 groups. groups, with 20 mice in each group: A, control group with normal saline; B, prophylactic intraperitoneal injection of anti-human Pear1 monoclonal antibody (including LF2 or hLF105 antibody) 0.5 mg/kg, once a week; C, prophylactic intraperitoneal injection of anti-human Pear1 monoclonal antibody 1 mg/kg, once a week. After the mice were euthanized at 2 time points of 2 weeks and 4 weeks, an inverted “U”-shaped incision was selected to enter the abdomen, avoiding the original surgical incision. […] And the degree of adhesion in the peritoneal adhesion model was evaluated. […]
According to the scoring standard of BhatiaDS, grade 0: no adhesion; grade I: adhesive area of the area treated in the caecums of vermiform/total area of the treated area<50%, easy for blunt separation; grade II: above-mentioned area ratio≥50%, easy for blunt dissection; Grade III: Regardless of the size of the adhesive area, as long as the adhesion is difficult to separate, blunt separation can still be performed, but the intestinal wall is obviously damaged after separation; Grade IV: Regardless of the size of the adhesive area, as long as the adhesion is firm and can no longer be bluntly separated, required sharp separation. Each mouse was scored by 3 people respectively, and the average value was taken as the score of adhesion in this sample.

Test [2] concerns humanized Pear1 mice. The experiment in a line: Subcutaneous mucosal adhesion model, HE and Masson staining at wounded site. Format: in vivo. The conditions noted are these: 5 micrograms at the wounded site every 7 days; 14th day; versus control group. The text has this:
Mice were anesthetized by intraperitoneal injection of pentobarbital sodium. The hair is depilated and sterilized, and the skin is excised. A thin layer of bonding agent was applied to one side of the silicone plate to fix the wound concentrically with a clamping board. Each clamping board was sutured at regular intervals with eight stitches to secure it to the intact tissue around the wound, preventing contraction of the wound edges. Sterile dressings were cut into circular shapes and attached to the silicone board for protecting the wound, preventing the animals from scratching or chewing. The anti-human Pear1 monoclonal antibody was […].
Mice were anesthetized using isoflurane, maintaining a flow of 2% isoflurane. The sterile dressings on the silicone board were peeled off (or not peeled off). Pictures were taken at the wounded sites next to the fixed position and scale bar. If necessary, sterile dressings can be reapplied. Image J was used to process the photos. The wounded area can be calculated according to the circled area by the scale.
[…] were fixed in 4% paraformaldehyde for 48 hours, after paraffin embedding, a semi-automatic rotary slicing machine (Leica; rm2235 and cm1950) was used for slicing, dewaxing is carried out at room temperature, gradient ethanol is used for rehydration, HE and Masson staining were then performed.
Subsequently, in order to detect the role of targeting Pear1 in inhibiting adhesion formation in vivo, the inventors constructed an adhesion model in humanized Pear1 mice, and at the same time instilled anti-human Pear1 monoclonal antibodies (including LF2 or hLF105) each at a dose of 5 micrograms at the wounded site, with once administration every 7 days. On the 14th day, the subcutaneous mucosal tissue at the wounded site was removed, stained with HE and Masson, and photographed under a microscope. The thickness of the subcutaneous mucosa and skin and the area of collagen were counted by Image J software for indicating the formation of adhesions.

Test [3] relates to humanized Pear1 mice. Put plainly: Peritoneal adhesion model, indicators related to adhesion (immunohistochemistry or RT-PCR). Format: in vivo. The conditions noted are these: versus control group. The source says:
(§1) The model was made in humanized mice within 3 cm from the caecums of vermiform in peritoneal cavity, following the methods in the literature (Zhiliang Zhang, et al., Characteristics of genesis and development of peritoneal adhesion by different causes: experiment with rats, Chinese Journal of Medicine, 2005). The mice were divided into 3 groups. groups, with 20 mice in each group: A, control group with normal saline; B, prophylactic intraperitoneal injection of anti-human Pear1 monoclonal antibody (including LF2 or hLF105 antibody) 0.5 mg/kg, once a week; C, prophylactic intraperitoneal injection of anti-human Pear1 monoclonal antibody 1 mg/kg, once a week. After the mice were euthanized at 2 time points of 2 weeks and 4 weeks, an inverted “U”-shaped incision was selected to enter the abdomen, avoiding the original surgical incision. […] And the degree of adhesion in the peritoneal adhesion model was evaluated.
(§2) For fibroblast-specific Pear1 knockout mice, a peritoneal adhesion model was used to form a sham operation on the mice. The model preparation and animal grouping were as described above.
Immunohistochemistry or RT-PCR was used to measure some indicators related to adhesion formation to reflect the severity of adhesion, such as: fibrinogen (FIB), α-smooth actin (α-SMA), MMPs/TIMPs, transforming growth factor (TGF-β1), vascular endothelial growth factor (VEGF).

Test [4] concerns subcutaneous mucosal fibroblasts. Put plainly: TGFβ activated mucosal fibroblasts treated with antibody: hydroxyproline in supernatant and QPCR of Col7a1, ACTA2. To be noted: 1 μg/mL antibody, 10 ng/mL TGFβ, 48 hours; versus control group. Format: cell-based, humanized Pear1 mice. As to the method: After the treatment of starvation in cultured mucosal or subcutaneous derived fibroblasts for 12 hours, 1 μg/mL anti-human Pear1 monoclonal antibody (including LF2 antibody or hLF105 antibody) was added separately to treat the cells. After 30 minutes, 10 ng/mL TGFβ was added to treat the cells for 48 hours, then the cell supernatant was collected. The content of hydroxyproline was detected using the hydroxyproline detection kit of Nanjing Jiancheng Biology Co., Ltd. according to the instructions.
Mucosal fibroblasts in Method 5 were collected. Total mRNA was extracted by Trizol method (Invitrogen, Carlsbad, CA) according to standard protocols. Complementary DNA was synthesized using reverse transcriptase (Takara). ABI7000 Real-time PCR instrument (Life Technologies) was used to detect gene expression and the PCR primer sequences are shown in Table 5. The 18sRNA gene was used as an internal reference.
To further investigate the role of targeting Pear1 in inhibiting mucosal fibroblast activation, subcutaneous mucosal fibroblasts were isolated from humanized Pear1 mice and cultured in vitro. TGFβ activated fibroblasts were treated with anti-human Pear1 monoclonal antibodies (including LF2 or hLF105) for 48 hours, and the supernatants were collected to detect the content of hydroxyproline. The cells were collected for QPCR to detect the expression levels of extracellular matrix proteins such as collagen 7a1 (Col 7a1) and smooth muscle actin a2 (ACTA2) to characterize fibroblast activation and collagen synthesis.

Test [5] relates to humanized Pear1 mice. The experiment in a line: Peritoneal adhesion model, determination of hydroxyproline in tissues. Format: in vivo. The conditions noted are these: versus control group.
Source text: as §1, §2
The formation of tissue adhesion depends on the synthesis of collagen and hydroxyproline is the precursor of collagen synthesis. […]

[6] abbreviates: 0.5 mg/kg intraperitoneal once a week, 2 weeks (n = 8).
[7] abbreviates: 0.5 mg/kg intraperitoneal once a week, 4 weeks (n = 8).
The mark [8] stands for this setting: 1.0 mg/kg intraperitoneal once a week, 2 weeks (n = 8).
Setting [9] is: 1.0 mg/kg intraperitoneal once a week, 4 weeks (n = 8).

Changes are numbered by the printed parent chain. Names and notes keep the numbering of the source.

Experimental findings from US20240327510A1, “DRUG FOR PREVENTING, ALLEVIATING OR TREATING MUCOSAL ADHESION AND USE THEREOF” (SHANGHAI SYNVIDA BIOTECHNOLOGY CO. LTD., priority 2021, published 2024) are described below.

B1: hLF-N55Q: humanized anti-human Pear1 antibody; VH SEQ ID NO: 13, VL SEQ ID NO: 22 (antibody, V domains shown)
VH: QVQLVQSGAEVKKPGASVKVSCKASGYTFTGYPMNWVRQAPGKRLEWMGVINPYQGGTSYNQKFKGRATLTVDTSASTAYMELSSLRSEDTAVYYCARGGVRPFAYWGQGTLVTVSS
VL: DIQMTQSPSSLSASVGDRVTITCKASEDIYNRLAWYQQKPGKAPKLLISGATSLETGVPSRFSGSGSGNDFTLTISSLQPEDFATYYCQQYWSTPTFGQGTKLEIK
Take B1: the BhatiaDS score result in the test on humanized Pear1 mice [1] (setting [6]) is reported as “II (grade II: above-mentioned area ratio≥50%, easy for blunt dissection)”; in the test with humanized Pear1 mice [1] (setting [7]) it was “I (grade I: adhesive area of the area treated in the caecums of vermiform/total area of the treated area<50%, easy for blunt separation)”; in the test on humanized Pear1 mice [1] (setting [8]), “III”; in the test on humanized Pear1 mice [1] (setting [9]), “I (grade I: adhesive area of the area treated in the caecums of vermiform/total area of the treated area<50%, easy for blunt separation)”.

B2: hLF110: humanized anti-human Pear1 antibody; VH SEQ ID NO: 9, VL SEQ ID NO: 23 (antibody, V domains shown)
VH: B1 VH with K43Q, R44N, Q55N, A68V, T74K
VL: B1 VL with K42N
Regarding B2, the BhatiaDS score entry in the test with humanized Pear1 mice [1] (setting [6]) is “I (grade I: adhesive area of the area treated in the caecums of vermiform/total area of the treated area<50%, easy for blunt separation)”; with humanized Pear1 mice [1] (setting [7]) it was 0; in the test with humanized Pear1 mice [1] (setting [8]), “III”; in the test on humanized Pear1 mice [1] (setting [9]), “I (grade I: adhesive area of the area treated in the caecums of vermiform/total area of the treated area<50%, easy for blunt separation)”.

B3: hLF107: humanized anti-human Pear1 antibody; VH SEQ ID NO: 8, VL SEQ ID NO: 24 (antibody, V domains shown)
VH: B1 VH with Q55N
VL: B1 VL with F71Y
On to B3, for which the BhatiaDS score entry in the test with humanized Pear1 mice [1] (setting [6]) is listed as “II (grade II: above-mentioned area ratio≥50%, easy for blunt dissection)”; in the test with humanized Pear1 mice [1] (setting [7]), “I (grade I: adhesive area of the area treated in the caecums of vermiform/total area of the treated area<50%, easy for blunt separation)”; with humanized Pear1 mice [1] (setting [8]), “IV”; in the test with humanized Pear1 mice [1] (setting [9]), “II (grade II: above-mentioned area ratio≥50%, easy for blunt dissection)”.

B4: LF2: anti-human Pear1 monoclonal antibody; VH SEQ ID NO: 1, VL SEQ ID NO: 16 (antibody, V domains shown)
VH: EVQLQQSGPELVKPGASMKISCKASGYSFTGYPMNWVRQSHVKNLEWIGVINPYNGGTSYNQKFKGKATLTVDKSSSTAYIELLSLTSDDSAVYYCARGGVRPFAYWGQGTLVTVSA
VL: DIQMTQTSSSFSVSLGDRVTITCKASEDIYNRLAWYQQKPGNAPRLLISGATSLETGVPSRFSGSGSGNDYTLSITSLQTEDVATYYCQQYWSTPTFGAGTKLELQ
B4: in the test with humanized Pear1 mice [2], the “collagen deposition in the subcutaneous mucosa at wounded sites (Masson staining)” value was “less collagen deposition”, the “dermal thickness at wounded sites (HE staining)” value is given as “smaller dermal thickness” and the “fibroblasts at wounded sites (HE staining)” value is recorded as “fewer fibroblasts”. For the same molecule, in the test on humanized Pear1 mice [3], the “indicators related to adhesion (FIB, α-SMA, MMPs/TIMPs, TGF-β1, VEGF)” value is “significantly lower”. Besides, in test [4], the “ability to synthesize extracellular matrix” value is “inhibited” and the activation of fibroblasts entry was “inhibited”. In addition, the BhatiaDS score result in the test on humanized Pear1 mice [1] (setting [6]) was “I (grade I: adhesive area of the area treated in the caecums of vermiform/total area of the treated area<50%, easy for blunt separation)”. In the test with humanized Pear1 mice [1] (setting [8]), the BhatiaDS score entry is on record as “III”. The BhatiaDS score result in the test on humanized Pear1 mice [1] (setting [9]) is “I (grade I: adhesive area of the area treated in the caecums of vermiform/total area of the treated area<50%, easy for blunt separation)”. Also, the “BhatiaDS score compared with the control group” value with humanized Pear1 mice [1] (versus control group, especially in the high-dose group (1.0 mg/kg)) is recorded as “significantly lower”. Also, in the test with humanized Pear1 mice [5], the “hydroxyproline content in tissues” value is “significantly lower”.
